Test results published in article PMC10138300, “Molecular Recognition of Methacryllysine and Crotonyllysine by the AF9 YEATS Domain” (International Journal of Molecular Sciences, 2023).
Starred links: 1 amine or outer side, 2 acyl side, 3 side chain; linkers in the order of their positions; H or OH if unused. Non-standard residues stand in square brackets, D forms with d. No end group written: not given here. Kmea = methacryllysine, C=C(C)C(=O)NCCCC[C@H](N[*:1])C(=O)[*:2]; Kcr = crotonyllysine, C/C=C/C(=O)NCCCC[C@H](N[*:1])C(=O)[*:2]

T1: human AF9 YEATS domain (residues 1–138) (Homo sapiens, UniProt P42568)
T1 construct: containing the cloned AF9 YEATS gene (amino acids 1–138) with an N-terminal 6xHis tag; 6xHis (N); made in house; host or cells: E. coli Rosetta 2(DE3)pLysS
T1 sequence (P42568 1-138): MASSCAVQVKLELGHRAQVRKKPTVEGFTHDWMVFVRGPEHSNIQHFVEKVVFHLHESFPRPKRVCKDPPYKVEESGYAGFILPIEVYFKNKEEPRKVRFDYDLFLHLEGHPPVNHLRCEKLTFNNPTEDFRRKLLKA

T2: recombinant human AF9 YEATS domain (residues 1–138) (human, UniProt P42568 1-138)
T2 construct: AF9 (MLLT3), human, YEATS domain, amino acids 1-138, in pET28b(+); Plasmid was a gift from Prof; No step that removes the tag is described; the final SEC product is called 6xHis AF9 YEATS, so the tag was probably still on in ITC; also called 6xHis-AF9 YEATS; source: E. coli Rosetta 2(DE3)pLysS, purified (HisTrap Ni-NTA, Superdex 75 SEC)
T2 sequence (looked up): T1 sequence (P42568 1-138)

B1: histone H3K9mea peptide (residues 3–15) (peptide)
peptide: TKQTAR[Kmea]STGGKA-NH2
notes: histone H3, residues 3-15; the stretch is the same in H3.1, H3.2 and H3.3; Made on Rink amide resin, so the C-terminus is probably an amide; last residue coupled as N-alpha-Boc amino acid, so the N-terminus is probably free; source: synthetic peptide (Fmoc-SPPS on Rink amide resin, RP-HPLC purified)
B2: histone H3K9cr peptide (residues 3–15) (peptide)
peptide: TKQTAR[Kcr]STGGKA-NH2
notes: as for B1
B3: histone H3K18mea peptide (residues 10–25) (peptide)
peptide: STGGKAPRKQLATKAA
modifications: methacryllysine (Kmea) at K18
notes: histone H3, residues 10-25; the stretch is the same in H3.1, H3.2 and H3.3; Made on Rink amide resin, so the C-terminus is probably an amide; last residue coupled as N-alpha-Boc amino acid, so the N-terminus is probably free; source: synthetic peptide (Fmoc-SPPS on Rink amide resin, RP-HPLC purified)
B4: histone H3K18cr peptide (residues 10–25) (peptide)
peptide: STGGKAPRKQLATKAA
modifications: crotonyllysine (Kcr) at K18
notes: histone H3, residues 10-25; the stretch is the same in H3.1, H3.2 and H3.3; Made on Rink amide resin, so the C-terminus is probably an amide; last residue coupled as N-alpha-Boc amino acid, so the N-terminus is probably free; also called H3K18Kcr; source: synthetic peptide (Fmoc-SPPS on Rink amide resin, RP-HPLC purified)

What was measured:
[1] = molecular target: T1, human AF9 YEATS domain (residues 1–138); test: ITC binding assay with AF9 YEATS domain; conditions: MicroCal PEAQ-ITC, 50 mM NaH2PO4, 500 mM NaCl, 2 mM EDTA, 2 mM β-ME, H3 peptides 1.1–2.7 mM titrated into AF9 YEATS 94–205 μM, One Set of Sites model, n = 3, errors as standard error (SE)
Procedure: The plasmid was transformed into Rosetta 2(DE3)pLysS E. coli cells (Novagen, Darmstadt, Germany) by the heat-shock method. Transformed cells were cultivated at 37 °C in TB medium supplemented with 50 μg/mL kanamycin and 35 μg/mL chloramphenicol. The cultivation continued until the culture’s OD600 reached 1.5. Then the culture was cooled down to room temperature (RT), and the protein expression was induced by adding isopropyl β-d-1-thiogalactopyranoside (IPTG) at a final concentration of 0.3 mM. The cultivation was continued for 18 h at RT. After the protein expression was completed, the cells were harvested by centrifuging the culture at 6500 rpm at 4 °C for 15 min. The pellets were then resuspended in cell lysis buffer containing 50 mM Tris, 500 mM NaCl, 30 mM imidazole, at pH 7.4, 1 mM phenylmethylsulfonyl fluoride (PMSF), 2 mM β-mercaptaethanol (β-ME), and 20 μg/mL DNase I. Subsequently, the cells were lysed using the One Shot Cell Disrupter (Constant Systems LTD, Daventry, UK), and the cell debris was settled down by centrifuging the lysate at 19500 rpm at 4 °C for 20 min. […]
ITC experiments were performed using a MicroCal PEAQ-ITC instrument (Malvern Panalytical, Malvern, UK). […] The concentrations of all histone peptides and proteins were measured by UV analysis on a Thermo-Fisher Nanodrop spectrophotometer in buffer using λmax at 215 nm and 280 nm, respectively. […]

[2] = molecular target: T2, recombinant human AF9 YEATS domain …; test: ITC; H3 peptides (1.1–2.7 mM) titrated into AF9 YEATS (94–205 μM), 19 injections; 50 mM NaH2PO4, 500 mM NaCl, 2 mM EDTA, 2 mM β-ME; One Set of Sites model; triplicates; conditions: both partners purified

Molecule	N (Stoichiometry) [1]	Kd [2] [µM]	stoichiometry N [2]
C/C=C/C(=O)NCCCC[C@H](NC(=O)[C@H](CCCNC(=N)N)NC(=O)[C@H](C)NC(=O)[C@@H](NC(=O)[C@H](CCC(N)=O)NC(=O)[C@H](CCCCN)NC(=O)[C@@H](N)[C@@H](C)O)[C@@H](C)O)C(=O)N[C@@H](CO)C(=O)N[C@H](C(=O)NCC(=O)NCC(=O)N[C@@H](CCCCN)C(=O)N[C@@H](C)C(N)=O)[C@@H](C)O [H3K9cr]	0.98 ± 0.01		
B1		59	1.02
B2		11	0.98
B3		114	
B4		21	
